Laboratory results taken from IntAct's records for PubMed 29039417.

B1: Protein PTHB1 (Homo sapiens), Q3SYG4 (parent)
chain: MSLFKARDWWSTILGDKEEFDQGCLCLANVDNSGNGQDKIIVGSFMGYLRIFSPHPAKTGDGAQAEDLLLEVDLRDPVLQVEVGKFVSGTEMLHLAVLHSRKLCVYSVSGTLGNVEHGNQCQMKLMYEHNLQRTACNMTYGSFGGVKGRDLICIQSMDGMLMVFEQESYAFGRFLPGFLLPGPLAYSSRTDSFLTVSSCQQVESYKYQVLAFATDADKRQETEQQKLGSGKRLVVDWTLNIGEQALDICIVSFNQSASSVFVLGERNFFCLKDNGQIRFMKKLDWSPSCFLPYCSVSEGTINTLIGNHNNMLHIYQDVTLKWATQLPHIPVAVRVGCLHDLKGVIVTLSDDGHLQCSYLGTDPSLFQAPNVQSRELNYDELDVEMKELQKIIKDVNKSQGVWPMTEREDDLNVSVVVSPNFDSVSQATDVEVGTDLVPSVTVKVTLQNRVILQKAKLSVYVQPPLELTCDQFTFEFMTPDLTRTVSFSVYLKRSYTPSELEGNAVVSYSRPTDRNPDGIPRVIQCKFRLPLKLICLPGQPSKTASHKITIDTNKSPVSLLSLFPGFASQSDDDQVNVMGFHFLGGARITVLASKTSQRYRIQSEQFEDLWLITNELILRLQEYFEKQGVKDFACSFSGSIPLQEYFELIDHHFELRINGEKLEELLSERAVQFRAIQRRLLARFKDKTPAPLQHLDTLLDGTYKQVIALADAVEENQGNLFQSFTRLKSATHLVILLIALWQKLSADQVAILEAAFLPLQEDTQELGWEETVDAAISHLLKTCLSKSSKEQALNLNSQLNIPKDTSQLKKHITLLCDRLSKGGRLCLSTDAAAPQTMVMPGGCTTIPESDLEERSVEQDSTELFTNHRHLTAETPRPEVSPLQGVSE
partner: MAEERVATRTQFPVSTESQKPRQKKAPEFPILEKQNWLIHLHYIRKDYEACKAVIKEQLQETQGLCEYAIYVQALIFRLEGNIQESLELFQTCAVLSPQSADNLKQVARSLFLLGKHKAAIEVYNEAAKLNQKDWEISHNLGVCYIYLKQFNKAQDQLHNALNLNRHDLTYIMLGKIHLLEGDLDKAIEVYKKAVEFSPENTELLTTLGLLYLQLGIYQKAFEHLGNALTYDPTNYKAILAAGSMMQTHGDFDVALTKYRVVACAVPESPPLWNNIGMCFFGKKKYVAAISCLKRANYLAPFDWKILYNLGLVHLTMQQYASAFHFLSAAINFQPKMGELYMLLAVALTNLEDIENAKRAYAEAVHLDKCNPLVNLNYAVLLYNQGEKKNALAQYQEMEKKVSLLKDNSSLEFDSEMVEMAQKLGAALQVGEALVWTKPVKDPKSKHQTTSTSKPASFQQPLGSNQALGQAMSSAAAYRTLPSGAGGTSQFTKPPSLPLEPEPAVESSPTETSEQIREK

Variants of: B1
Details: with bbs4_human BBS4, Q96RK4

Row | Variant | effect of a mutation on the interaction
1 | V506A | with no effect
2 | E647K | disrupting interaction strength
3 | Q760K | with no effect
4 | Q426K | with no effect
5 | C783K | with no effect
6 | C783E | with no effect
7 | L642A | with no effect
8 | L642K | with no effect
9 | S561K | with no effect
10 | R619E | with no effect
11 | E753K | with no effect
12 | E769A | with no effect
13 | P641A | with no effect
14 | D696V | disrupting interaction strength
15 | R678K | disrupting interaction strength
16 | R678E | with no effect
17 | L467A | with no effect
18 | T836A | with no effect
19 | G579E | with no effect
20 | K728E | with no effect
21 | C816A | with no effect
22 | R679W | disrupting interaction strength
23 | R679L | disrupting interaction strength

Row | Variant | effect of a mutation on the interaction
24 | L491K | with no effect
25 | L784A | with no effect
26 | L784E | with no effect
27 | S458E | with no effect
28 | T805K | with no effect
29 | V440A | with no effect
30 | V440E | with no effect
31 | D470K | with no effect
32 | G823E | with no effect
33 | L681E | with no effect
34 | S745E | disrupting interaction strength
35 | S745A | with no effect
36 | A675E | with no effect
37 | A675K | with no effect
38 | I617A | with no effect
39 | I617T | disrupting interaction strength
40 | I617E | with no effect
41 | F474E | with no effect
42 | E431A | with no effect
43 | G518E | with no effect
44 | Q705E | with no effect
45 | I735A | with no effect
46 | H778E | with no effect

Row | Variant | effect of a mutation on the interaction
47 | Q835M | disrupting interaction strength
48 | S494E | with no effect
49 | L882K | with no effect
50 | G628E | with no effect
51 | G628K | with no effect
52 | S568A | with no effect
53 | T813E | with no effect
54 | D631E | with no effect
55 | N412K | with no effect
56 | T725A | with no effect
57 | Q605K | with no effect
58 | Q605E | with no effect
59 | P516K | with no effect
60 | P516A | with no effect
61 | A708E | with no effect
62 | L766K | with no effect
63 | D830A | with no effect
64 | P847E | with no effect
65 | R868A | with no effect
66 | L620P | disrupting interaction strength
67 | V442K | with no effect
68 | V713K | with no effect
69 | G659D | disrupting interaction strength

Row | Variant | effect of a mutation on the interaction
70 | G659A | with no effect
71 | G659E | with no effect
72 | G659K | with no effect
73 | D686E | with no effect
74 | F580K | with no effect
75 | N794K | with no effect
76 | I601K | with no effect
77 | V505E | with no effect
78 | G822K | with no effect
79 | R876A | with no effect
80 | L533E | with no effect
81 | G565K | with no effect
82 | W768A | with no effect
83 | W768K | with no effect
84 | L698K | with no effect
85 | R598K | with no effect
86 | S785A | with no effect
87 | P438E | with no effect
88 | L752E | with no effect
89 | N503A | with no effect
90 | Q791A | with no effect
